Experimental data taken from PMC5908797, “Evolutionary plasticity of the NHL domain underlies distinct solutions to RNA recognition”.
Positions count from the first letter of the chain named.

How the values were obtained:
CeLIN41 filamin-NHL [1] = molecular target: T1, CeLIN41 filamin-NHL (Caenorhabditis elegans, UniProt Q9U489 691-1147); assay: EMSA; FP: 20 mM HEPES, 200 mM NaCl, 0.05% Tween20, 100 nM Cy5-RNA, 30 min room temp; EMSA: 1x of 2x buffer (20 mM Hepes pH 8, 100 mM KCl, 200 mM NaCl, 0.2 mM EDTA, 20 mM DTT, 2 mM MgCl2, 2 mM CaCl2, 0.2 mM ZnSO4, 60% glycerol, heparin, E. coli tRNA), 5 uM protein stock (1 ul in 8 ul), ~2 nM RNA, room temp; conditions: protein: recombinant, tags: N-terminal Strep tag, TEV site, label: 32P (radioactive) body label
T1 sequence: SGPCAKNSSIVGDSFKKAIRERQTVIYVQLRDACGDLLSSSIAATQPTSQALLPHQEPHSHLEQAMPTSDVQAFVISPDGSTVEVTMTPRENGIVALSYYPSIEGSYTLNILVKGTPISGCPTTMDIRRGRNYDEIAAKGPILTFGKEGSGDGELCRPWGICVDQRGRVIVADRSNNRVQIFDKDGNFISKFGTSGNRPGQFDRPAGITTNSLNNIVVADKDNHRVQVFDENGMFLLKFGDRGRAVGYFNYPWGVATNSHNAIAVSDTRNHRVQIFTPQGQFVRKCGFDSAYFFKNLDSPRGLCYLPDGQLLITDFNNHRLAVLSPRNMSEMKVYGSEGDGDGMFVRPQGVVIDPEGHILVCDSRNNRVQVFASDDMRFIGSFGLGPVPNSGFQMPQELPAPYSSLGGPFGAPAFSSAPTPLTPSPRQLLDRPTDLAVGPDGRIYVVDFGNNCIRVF

CeLIN41 filamin-NHL [2] = molecular target: T1, CeLIN41 filamin-NHL; assay: fluorescence polarization; FP: 20 mM HEPES, 200 mM NaCl, 0.05% Tween20, 100 nM Cy5-RNA, 30 min room temp; EMSA: 1x of 2x buffer (20 mM Hepes pH 8, 100 mM KCl, 200 mM NaCl, 0.2 mM EDTA, 20 mM DTT, 2 mM MgCl2, 2 mM CaCl2, 0.2 mM ZnSO4, 60% glycerol, heparin, E. coli tRNA), 5 uM protein stock (1 ul in 8 ul), ~2 nM RNA, room temp; conditions: protein: recombinant, tags: N-terminal Strep tag, TEV site, label: 5'-Cy5, hairpin
CeLIN41 filamin-NHL [3] = molecular target: T1, CeLIN41 filamin-NHL; assay: EMSA; restored; FP: 20 mM HEPES, 200 mM NaCl, 0.05% Tween20, 100 nM Cy5-RNA, 30 min room temp; EMSA: 1x of 2x buffer (20 mM Hepes pH 8, 100 mM KCl, 200 mM NaCl, 0.2 mM EDTA, 20 mM DTT, 2 mM MgCl2, 2 mM CaCl2, 0.2 mM ZnSO4, 60% glycerol, heparin, E. coli tRNA), 5 uM protein stock (1 ul in 8 ul), ~2 nM RNA, room temp; conditions: protein: recombinant; tags: N-terminal Strep tag, TEV site; label: 32P (radioactive) body label; SL I and III restored
CeLIN41 filamin-NHL [4] = molecular target: T1, CeLIN41 filamin-NHL; assay: EMSA; restored to wild-type level; FP: 20 mM HEPES, 200 mM NaCl, 0.05% Tween20, 100 nM Cy5-RNA, 30 min room temp; EMSA: 1x of 2x buffer (20 mM Hepes pH 8, 100 mM KCl, 200 mM NaCl, 0.2 mM EDTA, 20 mM DTT, 2 mM MgCl2, 2 mM CaCl2, 0.2 mM ZnSO4, 60% glycerol, heparin, E. coli tRNA), 5 uM protein stock (1 ul in 8 ul), ~2 nM RNA, room temp; conditions: protein: recombinant; tags: N-terminal Strep tag, TEV site; label: 32P (radioactive) body label; stems restored by compensatory mutations

B1: mab-10 condensed 3'UTR (structured_RNA)
RNA: UCUAGUUUUCAAAAAACCCCCCAUUUUUCCGGCGGUUUUUCAAAAACCAAUGCCAAGCUCUCAUAUAAUGGGAGUCUAAACACAGUUCGGUUCCAAAACUGAAAAACUUCAAUUUCGCAUCCAAUGCAUUGCAAGUUGAUUGCUUUUCACAAAAAUUUUGCAUUUAAUGCAGUGAAAAUUUUCCGGUCAUUCGAAAUGGCCUAAUUUGCUCCAAAAA
B1: binds (CeLIN41 filamin-NHL [1]; five tri-loop stem-loops).

B2: mab-10 condensed 3'UTR mut-res (structured_RNA)
RNA: B1 RNA with G35C, C47G, C62G, G70C, C118G, G126C, C161G, G169C, C188G, G198C
B2: binds (CeLIN41 filamin-NHL [1]; five stems restored).

B3: mab-10 condensed 3'UTR mut (structured_RNA)
RNA: B1 RNA with G35C, C62G, C118G, C161G, C188G
B3: no binding (CeLIN41 filamin-NHL [1]; five stems disrupted).

B4: Ctrl (5-nt loop) (structured_RNA)
RNA: GCUGACCAACUCC
B4: no binding (CeLIN41 filamin-NHL [2]; 5 nt loop).

B5: lin-29A 5'UTR (structured_RNA)
RNA: GUUCCGAACCAAUUCGCCUAGCGAACCUUGGAGUCCAACUCCGUUUUUACUCUUUUCUGAAAAGAGCCUACUAAAUAUUGGAACUAUAAUCAAACUAUUCGAUCAAAUCGACACACCUACUAGAUAUCAAAUAUCUAAUACUGGAACCAAGGCUUGGGUAACCUGAAACUGUGCGAAUUUGGAGCAGAAAUAUU
B5: binds (CeLIN41 filamin-NHL [1]; four tri-loop stem-loops).

B6: lin-29A mut2-res (structured_RNA)
RNA: B5 RNA with G33C, C39G, G101C, C109G
B6: binds (CeLIN41 filamin-NHL [3]).

B7: mab-10 part 4 (structured_RNA)
RNA: UCGCAUCCAAUGCAUUGCAAGUUGAUUGCUUUUAUAAAUUUUUGGGUCUCGAAGCGAAAAGCCCAUAGGAUUUUCACAAAAAUUUUGCAUUUAAUGCAGUGAAAAUUCAAAAAAUUCAAAGAUUUUUCUGAAUAGAUCAAAUUUUCAAAUUUUCCGGUCAUUCGAAAUGGCCUAAUUUGCUCCAAAAAUUUGAAUAAUCC
B7: binds (CeLIN41 filamin-NHL [1]; tri-loop stem-loops).

B8: mab-10 part 4 mut-res (structured_RNA)
RNA: B7 RNA with C4G, G12C, C88G, G96C, C159G, G169C
B8: binds (CeLIN41 filamin-NHL [4]).

B9: mab-10 part 2 (structured_RNA)
RNA: UAAAUUCCCGCCCCCUUCGCUCGGAGUCAUAUAAUUUCCUUCUCUUCCUAUCACUUUUUUGUCUAGUUUUCAAAAAACCCCCCAUUUUUCCGGCGGUUUUUCAAAAACCAAUGCCAAGCUCUCAUAUAAUGGGAGUCUAAACACAGUUCGGUUCCAAAACCAACGCCCACGGCCCCGCCCCCAAUUAGAUAAUUUAAAUA
B9: binds (CeLIN41 filamin-NHL [1]; tri-loop stem-loops).

B10: mab-10 part 2 mut-res (structured_RNA)
RNA: B9 RNA with G96C, C108G, C123G, G131C
B10: binds (CeLIN41 filamin-NHL [4]).

B11: L1 (lin-29A SL I, WT LRE) (structured_RNA)
RNA: GGAGUCCAACUCC
Work on B11 yielded a Kd (CeLIN41 filamin-NHL [2]; 5 bp stem, tri-loop) of 1320 nM.
